The source of these data is patent US20210145976A1 (ARO BIOTHERAPEUTICS, published 2021).

Positions count from the first letter of the chain named.

For assay [1], the target named is T1, recombinant biotinylated CD71 extracellular domain (Sino Biologics) with an N-terminal 6His tag (human, UniProt P02786 89-760, biotinylated (sites not given)).
T1 construct: extracellular domain; also called hCD71; huCD71
In words: screening ELISA.

Assay [2] deals with T1, recombinant biotinylated CD71 …. As to the kind of experiment: screening ELISA, ratio. A general note: ELISA stands for enzyme-linked immunosorbent assay.
The next assay concerns the target CD71 on SK-BR-3 cells (human, UniProt P02786 1-760). In words: cell-based or functional assay.

CD71 on SK-BR-3 cells, sequence (P02786 whole entry): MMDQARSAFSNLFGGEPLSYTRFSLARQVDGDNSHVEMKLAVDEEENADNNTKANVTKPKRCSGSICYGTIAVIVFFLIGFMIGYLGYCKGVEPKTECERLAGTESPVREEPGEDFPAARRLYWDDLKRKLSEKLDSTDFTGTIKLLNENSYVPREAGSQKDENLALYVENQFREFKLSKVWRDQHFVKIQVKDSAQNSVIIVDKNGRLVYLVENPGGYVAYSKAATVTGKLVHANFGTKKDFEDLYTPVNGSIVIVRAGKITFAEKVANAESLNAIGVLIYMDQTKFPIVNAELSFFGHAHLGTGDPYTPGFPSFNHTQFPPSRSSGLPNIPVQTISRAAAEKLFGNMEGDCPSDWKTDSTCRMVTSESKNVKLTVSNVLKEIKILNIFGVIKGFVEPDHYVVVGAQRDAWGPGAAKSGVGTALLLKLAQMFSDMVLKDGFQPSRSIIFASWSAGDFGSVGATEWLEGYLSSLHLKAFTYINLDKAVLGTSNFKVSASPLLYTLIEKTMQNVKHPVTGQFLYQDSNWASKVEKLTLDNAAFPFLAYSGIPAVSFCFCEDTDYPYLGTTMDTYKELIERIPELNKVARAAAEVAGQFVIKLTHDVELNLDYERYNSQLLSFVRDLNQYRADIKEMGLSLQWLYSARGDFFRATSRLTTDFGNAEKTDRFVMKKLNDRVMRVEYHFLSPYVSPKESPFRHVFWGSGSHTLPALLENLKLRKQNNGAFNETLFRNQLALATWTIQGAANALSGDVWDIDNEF
T1 sequence (P02786 other isoform, or with tags, fused parts or gaps): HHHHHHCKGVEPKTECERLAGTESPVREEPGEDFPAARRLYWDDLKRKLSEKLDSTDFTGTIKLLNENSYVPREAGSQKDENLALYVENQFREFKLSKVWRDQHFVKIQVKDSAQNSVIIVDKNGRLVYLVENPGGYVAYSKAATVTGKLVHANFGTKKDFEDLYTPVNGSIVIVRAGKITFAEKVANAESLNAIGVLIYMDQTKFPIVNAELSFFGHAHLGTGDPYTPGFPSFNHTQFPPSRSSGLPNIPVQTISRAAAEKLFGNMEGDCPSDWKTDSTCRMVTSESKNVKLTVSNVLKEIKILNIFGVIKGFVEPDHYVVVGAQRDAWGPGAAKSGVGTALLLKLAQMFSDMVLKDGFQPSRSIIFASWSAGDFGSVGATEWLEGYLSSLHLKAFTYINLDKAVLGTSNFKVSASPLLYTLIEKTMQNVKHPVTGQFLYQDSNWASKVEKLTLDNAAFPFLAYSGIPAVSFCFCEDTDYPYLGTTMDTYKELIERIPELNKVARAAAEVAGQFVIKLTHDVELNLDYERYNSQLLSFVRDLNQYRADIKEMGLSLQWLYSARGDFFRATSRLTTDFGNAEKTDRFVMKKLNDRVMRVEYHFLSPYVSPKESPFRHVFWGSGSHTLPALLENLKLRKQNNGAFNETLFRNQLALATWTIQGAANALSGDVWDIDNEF

B1: SEQ ID NO 190 (designed binder)
chain: MLPAPKNLVVSRVTEDSARLSWTAPDAAFDSFFIGYPEYPATGEAITLFVPGSERSYDLTGLKPGTEYNVVIQGVKGGRPSNPLVVAFTT
notes: FN3 domain
As to B1, the hCD71 in assay [1] was 3.21e+06. Moreover, the “hCD71:HSA” value in assay [2] came out at 656. Moreover, in the assay with CD71 on SK-BR-3 cells, the “IC50, SKBR-3 viability, MMAF conjugate, first unlabelled column (+/- human transferrin)” value turned out to be 36 nM and the “IC50, SKBR-3 viability, MMAF conjugate, second unlabelled column (+/- human transferrin)” value was found to be 12 nM.

B2: SEQ ID NO 112 (designed binder)
chain: MLPAPKNLVVSRVTEDSARLSWTAPDAAFDSFFIAYFEFANPGEAIVLTVPGSERSYDLTGLKPGTEYKVVIQGVKGGTPSEPLSAISTT
notes: FN3 domain
With B2, the hCD71 in assay [1] came to 3.65e+06. Also, in assay [2], the “hCD71:HSA” value came out at 514. In the assay with CD71 on SK-BR-3 cells, the “IC50, SKBR-3 viability, MMAF conjugate, first unlabelled column (+/- human transferrin)” value stood at 27.3 nM and the “IC50, SKBR-3 viability, MMAF conjugate, second unlabelled column (+/- human transferrin)” value was determined as 4.55 nM.

B3: SEQ ID NO 252 (designed binder)
chain: MLPAPKNLVVSRVTEDSARLSWTAPDAAFDSFDIGYTEYGGYGEAIVLTVPGSERSYDLTGLKPGTEYWVLIQGVKGGGSSVPLSAIFTT
notes: FN3 domain
Turning to B3, the hCD71 in assay [1] is 2.98e+06. Moreover, the “hCD71:HSA” value in assay [2] was determined as 1190. Moreover, in the assay with CD71 on SK-BR-3 cells, the “IC50, SKBR-3 viability, MMAF conjugate, first unlabelled column (+/- human transferrin)” value is 24.6 nM and the “IC50, SKBR-3 viability, MMAF conjugate, second unlabelled column (+/- human transferrin)” value is 7.74 nM.

B4: SEQ ID NO 115 (designed binder)
chain: MLPAPKNLVVSRVTEDSARLSWTAPDAAFDSFFIGYLEPQPPGEAIVLTVPGSERSYDLTGLKPGTEYNVTIQGVKGGFPSMPLSAIFTTT
notes: FN3 domain
B4: in assay [1], the hCD71 came out at 2.92e+06. Also, in assay [2], the “hCD71:HSA” value is 846. For the same molecule, in the assay with CD71 on SK-BR-3 cells, the “IC50, SKBR-3 viability, MMAF conjugate, first unlabelled column (+/- human transferrin)” value was 24.2 nM and the “IC50, SKBR-3 viability, MMAF conjugate, second unlabelled column (+/- human transferrin)” value was 10.4 nM.

B5: SEQ ID NO 222 (designed binder)
chain: MLPAPKNLVVSRVTEDSARLSWTAPDAAFDSFYIEYFEWTGSGEAIVLTVPGSERSYDLTGLKPGTEYNVAIYGVKGGAVSYPLSAIFTT
notes: FN3 domain
In the case of B5, the hCD71 in assay [1] came out at 1.74e+06. For the same molecule, in assay [2], the “hCD71:HSA” value stood at 441. Also, in the assay with CD71 on SK-BR-3 cells, the “IC50, SKBR-3 viability, MMAF conjugate, second unlabelled column (+/- human transferrin)” value turned out to be 28.2 nM.

B6: SEQ ID NO 104 (designed binder)
chain: B5 chain with R12H, Y33D, F37Y, W39L, T40V, N69Y, A79Y, V80L, Y82R
notes: FN3 domain
With B6, the hCD71 in assay [1] was found to be 3.58e+06. In assay [2], the “hCD71:HSA” value amounted to 2100. In the assay with CD71 on SK-BR-3 cells, the “IC50, SKBR-3 viability, MMAF conjugate, first unlabelled column (+/- human transferrin)” value was 301 nM and the “IC50, SKBR-3 viability, MMAF conjugate, second unlabelled column (+/- human transferrin)” value amounted to 5.9 nM.

B7: SEQ ID NO 194 (designed binder)
chain: MLPAPKNLVVSRVTEDSARLSWTAPDAAFDSFEIDYDELAIYGEAIVLTVPGSERSYDLTGLKPGTEYRVFIYGVKGGWTSWPLSTIFTT
notes: FN3 domain
B7: the hCD71 in assay [1] turned out to be 562000. For the same molecule, the “hCD71:HSA” value in assay [2] worked out at 32. The “IC50, SKBR-3 viability, MMAF conjugate, second unlabelled column (+/- human transferrin)” value with CD71 on SK-BR-3 cells is 5.09 nM.

B8: SEQ ID NO 95 (designed binder)
chain: MLPAPKNLVVSRVTEDSARLSWTAPDAAFDSFRISYYEWYDLGEAIVLTVPGSERSYDLTGLKPGTEYWVDIAGVKGGYYSYPLSAIFTT
notes: FN3 domain
As for B8, the hCD71 in assay [1] is 4.21e+06. In addition, the “hCD71:HSA” value in assay [2] was 2210. For the same molecule, in the assay with CD71 on SK-BR-3 cells, the “IC50, SKBR-3 viability, MMAF conjugate, first unlabelled column (+/- human transferrin)” value was 28.3 nM and the “IC50, SKBR-3 viability, MMAF conjugate, second unlabelled column (+/- human transferrin)” value is 12.7 nM.

B9: SEQ ID NO 217 (designed binder)
chain: MLPAPKNLVVSRVTEDSARLSWTAPDAAFDSFIIEYWEWYFAGEAIVLTVPGSERSYDLTGLKPGTEYTVWITGVKGGTWSEPLSAIFTT
notes: FN3 domain
Regarding B9, in assay [1], the hCD71 is 3.9e+06. In assay [2], the “hCD71:HSA” value was determined as 332. For the same molecule, in the assay with CD71 on SK-BR-3 cells, the “IC50, SKBR-3 viability, MMAF conjugate, first unlabelled column (+/- human transferrin)” value is 15.8 nM and the “IC50, SKBR-3 viability, MMAF conjugate, second unlabelled column (+/- human transferrin)” value worked out at 2.46 nM.
